Series [1] concerns the target T1, hARTC1 in the presence of hARTC3 (hARTC1–hARTC3 heterodimer) (Homo sapiens, UniProt P52961).
T1 construct: gene ART1; GST-hARTC1 (N23-C295) with His-hARTC3 (N27-C362), both from E. coli; heterodimer by size exclusion; with Ecto-ADP-ribosyltransferase 3
T1 sequence (P52961 23-295): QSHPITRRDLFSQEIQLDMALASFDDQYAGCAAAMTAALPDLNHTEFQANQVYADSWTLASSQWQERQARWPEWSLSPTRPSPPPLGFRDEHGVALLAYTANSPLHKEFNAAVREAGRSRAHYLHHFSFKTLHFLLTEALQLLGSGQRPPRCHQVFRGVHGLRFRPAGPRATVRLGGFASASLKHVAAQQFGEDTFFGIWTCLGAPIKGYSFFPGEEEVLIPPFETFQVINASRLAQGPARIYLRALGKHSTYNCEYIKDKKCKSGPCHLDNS
T1 sequence (Q13508 27-362 partner): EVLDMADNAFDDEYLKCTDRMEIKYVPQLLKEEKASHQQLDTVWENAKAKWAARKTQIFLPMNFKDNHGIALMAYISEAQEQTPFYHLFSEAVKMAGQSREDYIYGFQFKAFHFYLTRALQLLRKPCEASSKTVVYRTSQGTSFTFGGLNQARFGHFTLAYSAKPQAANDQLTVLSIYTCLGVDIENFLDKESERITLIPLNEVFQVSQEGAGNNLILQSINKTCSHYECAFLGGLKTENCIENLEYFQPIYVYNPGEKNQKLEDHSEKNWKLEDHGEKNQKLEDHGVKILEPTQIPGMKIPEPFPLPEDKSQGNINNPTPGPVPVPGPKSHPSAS
As to the kind of experiment: etheno-NAD+ fluorescence kinetics. Format: biochemical. Conditions: 20 mM Tris-HCl pH 8.0, 37°C; hARTC1 with hARTC3 added.

Substrate in series [2]: NC(=O)c1ccc[n+]([C@@H]2O[C@H](COP(=O)(O)OP(=O)(O)OC[C@H]3O[C@@H](n4cnc5c4ncn4ccnc54)[C@H](O)[C@@H]3O)[C@@H](O)[C@H]2O)c1
The series is described as follows: etheno-NAD+ NAD+ hydrolase fluorescence assay, Lineweaver-Burk. The class given is biochemical, Homo sapiens. Conditions: 20 mM Tris-HCl pH 8.0, 37°C, 60 min, etheno-NAD+ 0-10 μM, enzyme 10 μg/ml.

The target of another series is T2, His-hARTC3 (N27–C362) (human, UniProt Q13508 27-362).
T2 construct: human ARTC3 residues 27-362, printed as N27–C362 (N and C read as the N- and C-terminal limits), in pET-15b; also called His-ARTC3 (N27–C362); source: E. coli BL21 (Codon Plus), purified (Ni-chelating Sepharose); not shown: His tag, N-terminal, kept
T2 sequence (looked up): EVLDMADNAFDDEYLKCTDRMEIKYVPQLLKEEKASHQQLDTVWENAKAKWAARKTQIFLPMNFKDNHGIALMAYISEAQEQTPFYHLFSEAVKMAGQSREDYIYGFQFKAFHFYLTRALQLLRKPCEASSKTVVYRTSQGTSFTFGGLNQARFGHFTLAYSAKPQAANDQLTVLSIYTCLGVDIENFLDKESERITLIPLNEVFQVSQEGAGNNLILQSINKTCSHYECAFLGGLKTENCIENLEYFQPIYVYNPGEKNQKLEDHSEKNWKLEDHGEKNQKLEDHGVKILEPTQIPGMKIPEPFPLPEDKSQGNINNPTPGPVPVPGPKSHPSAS
The series is described as follows: pull-down; GST-hARTC1 (N23–C295) and His-hARTC3 (N27–C362) purified from E. coli, incubated with Glutathione Sepharose 4B and Ni-chelating Sepharose, 4°C, 2 h; washes in NETN 100; blots with anti-His and anti-GST. Conditions: both partners purified.

Consider `NC(=O)c1ccc[n+]([C@@H]2O[C@H](COP(=O)(O)OP(=O)(O)OC[C@H]3O[C@@H](n4cnc5c4ncn4ccnc54)[C@H](O)[C@@H]3O)[C@@H](O)[C@H]2O)c1` [etheno-NAD^+], for which the “etheno-NAD+ fluorescence kinetics” value in series [1] was “Enzymatic kinetics for etheno-NAD^+ of hARTC1 in the presence (green) or absence (red)”.

B1: hARTC5 (GST-ARTC5 (N23–C291)) (Homo sapiens) (protein)
chain: VPILPLGLAPDTFDDTYVGCAEEMEEKAAPLLKEEMAHHALLRESWEAAQETWEDKRRGLTLPPGFKAQNGIAIMVYTNSSNTLYWELNQAVRTGGGSRELYMRHFPFKALHFYLIRALQLLRGSGGCSRGPGEVVFRGVGSLRFEPKRLGDSVRLGQFASSSLDKAVAHRFGNATLFSLTTCFGAPIQAFSVFPKEREVLIPPHEVFLVTRFSQDGAQSLVTLWSYNQTCSHFNCAYLGGEKRRGCVSAPGALGTGDLHMTKRHLQQP
Take B1: in series [2], the Km (in general, the substrate concentration at which the rate is half of its maximum) stood at 56.78 ± 11.90 µM.

B2: GST-hARTC1 (N23–C295) (domain or fragment, human, UniProt P52961 23-295, looked up)
chain: QSHPITRRDLFSQEIQLDMALASFDDQYAGCAAAMTAALPDLNHTEFQANQVYADSWTLASSQWQERQARWPEWSLSPTRPSPPPLGFRDEHGVALLAYTANSPLHKEFNAAVREAGRSRAHYLHHFSFKTLHFLLTEALQLLGSGQRPPRCHQVFRGVHGLRFRPAGPRATVRLGGFASASLKHVAAQQFGEDTFFGIWTCLGAPIKGYSFFPGEEEVLIPPFETFQVINASRLAQGPARIYLRALGKHSTYNCEYIKDKKCKSGPCHLDNS
notes: human ARTC1 residues 23-295, printed as N23–C295 (N and C read as the N- and C-terminal limits), in pGEX-4T-1; also called GST-ARTC1 (N23–C295); source: E. coli BL21 (Codon Plus), purified (Glutathione Sepharose 4B); not shown: GST, N-terminal, kept
For B2, the binding result in the series with His-hARTC3 (N27–C362) is “binds”. In series [2], the Km amounted to 11.59 ± 1.57 µM.

Values taken from publication PMC10928986, “ARTC1-mediated VAPB ADP-ribosylation regulates calcium homeostasis” (Journal of Molecular Cell Biology, 2023).
